Data published in PMC5137447.

Tests used:
[1] = molecular target: T1, influenza A virus RNA polymerase (RNAP; PB1-PB2-PA) (Influenza A virus A/NorthernTerritories/60/68 (H3N2)) (UniProt Q910D6+Q91MB1+P03433); assay: smFRET titration
[2] = molecular target: T1, influenza A virus RNA polymerase (RNAP; PB1-PB2-PA) (Influenza A virus A/NorthernTerritories/60/68 (H3N2)); assay: fluorescence anisotropy

Row | Sequence | Kd [1] | Kd [2]
1 | AGCGAAAGCAGGAGUUU / UAAACUCCUUGUUUCUACU [cRNA promoter 5U17/3U4] | 13 nM | 
2 | AGCGAAAGCAGGAGUUU [5' cRNA] |  | 44 nM
3 | UAAACUCCUUGUUUCUACU [3' cRNA] |  | > 1000 nM
